Laboratory results published in PMC9018529 (Molecular microbiology, 2022).

Molecular target: the molecule itself
Assay: SEC

B1: SymE (Escherichia coli MG1655), untagged after TEV cleavage of His6-TEV-SymE (natural protein, E. coli MG1655, UniProt P39394 1-113, looked up)
chain: MTDTHSIAQPFEAEVSPANNRHVTVGYASRYPDYSRIPAITLKGQWLEAAGFATGTAVDVKVMEGCIVLTAQPPAAEESELMQSLRQVCKLSARKQKQVQAFIGVIAGKQKVA
Q: For B1, which “stoichiometry N” value is on record?
A: ~4
